Laboratory results taken from the DeepSol protein solubility set.

Test: soluble on expression in E. coli; label from the status in PepcDB or PDB records

Soluble on expression in E. coli, not soluble:
MITQRQNAILNLIVEMFTRTHEPVCSKALQDSIDSSSATIRNDMAKLEKMGYLEKAHISSGRMPSRAGFQYFVANSLNLDTIDEQDVYQVVKAFDFEAFKLEDILDAAAKLLAEMTGCTAVIQDVEPTKQRLTGFEIVQLSNHDALAVLTLDESKPVTVQFAIPKNFLSSDLEIFHKLVQGRFLGNTVLDIHYRLRTETPQIVQKYFKITDNVLDLFDYIFSHLFKELIFIEGKVASLAYADLKTYQFLDNPQHVALALRSAISDDEVTKISVAESTEEALENVTVMSHKFLIPYRGTALMHVIGPIEMDYRRMVSLVNVISRVLVMKLTDYYRYLNSNHYEVFLSRNVLKNIERGECLD
MITVVGGTFSKLHKGHKALLNTAIDTGNEVVIGLTSDEYVKKNKVYPAIPYSVRYRTLYNYMIKRTNKFRIRQIDDRNGNAPYEKDYEVIVVSPETYPRSLKINEIRISNGLPPLKIIRVPYVLAQDLFPISSTRIINGEID
MIVIIDYDTGNTKSISKALDFIGLQNKISSDATEISQADGVILPGVGAYPEAMKELTRRGLNKTLKEIAAGGKPILGVCLGMQLLLESSNEHSFTNGLGLIPGHVEKLPEDPEFAVPHMGWNQLQIKRATPLTKQLDGEYVYYVHSYYANCPEEYIIATSGYSIEVPGMINKGNIYGAQFHPEKSGQIGLEILKGFKEVTYSCKSSQQ
MIVPYSVEDILKDGCFLERAEIDRLLDRLRTKKNLILQGPPGTGKTWLAKRLAFALMGQKDDSKVRAVQFHPNLSYEDFVRGWRPTGEGKLSLADGVFMEAIKAASKDPSSKFVVVIEEINRGNPAQIFGELLTLLEAGKRTPNEALELCYPDADGKRRPVHIPENLYVVGTMNIADRSLALVDLALRRRFAFVGLEPRLGQVWRDWVVKECAVDPLEHHHHHH
MIVRAINYESLHIDDRFGSIEELKTKISQKYGIPINSQHIIFNGKFYVLGIFDSPLTVSSDTYTNPLGCFGCPDSLFNDLAGNGMTTDEIREYAFPHKDDPAKREGPDLSSVIDTRAIAKRITENRYEDAYKIPNDLSEKEKTIIMESSGEYIDLVLKQIKEILRSNTKY
MIYFQTKDDAFFTLASEQEADKPHREHLLDLTLGKGRKRKSSEVLRRGRLAACGLSFVVKNTLGELVGSVRLWHVQFNKGHNEIQHALLLGPLAVAAECSGIGIGSALMRHAIATAKKMGYGAIFLVGDCAFYQRFGFSSSLTKNLAMPGPYEKHRFQALELIPHYLTSCHGILTPSGELEDWNSFQHHKVA
MKAEGLSGGYGDSRLINNVSLTVEKGEFLGILGPNGSGKTTLLHLLTGTLPAKKGRVYLAGKLLADYKPKELAQIMAVLPQKMDQAFTFTVEETVAFGRYPFQTGLFRQQTEKGEAIVQEAMEQTGVADFAQKPIRELSGGEQQRVYLAQALAQQPRILFLDEPTNFLDLAYQKDLLDLIKRLTRESGLAAVSVFHDLNTASLYCDGLMFMKNGTAGPKQKPEYAVTEQSIKAVYDTDVTALVHQSSPKPMIVIQPEKDSVKRQSIPFEALLQAGRDDILLQTEIPLRTLSSTPIGAGFSWSRTLIHKRLPDQPDPIEGLTACLSESGFQLQETCAMASSERLDRFVYRTYEDGELSVFICVQTGFSIWILINGYAADQFFIKALMAAEAERTKVLGDGGGTGDILIAATQTQQSENIEQRLNQLIKKGTAECIKEAAELF
MKANKVLFITQEITPYVPESEMANMGRFLPQAIQEKGREIRTFMPKWGNVNERRNQLHEVIRLSGMNLIIDDTDHPLIIKVASIQAARMQVYFIDNDDYFQHRQMVADENGVEYKDNDERAIFYARGVLETVKKLRWCPDIIHCQGWMSAFVPLYIKKAYQDEPSFRDSKVVFSVFEDDFKSDCEGNLTEKLMLKGIEKNDVESIVKSPANYEELCKLAIAYSDGVIQNSEKVNENVMKFARESGVPVLDYQPADTYVDAFNEFYDKVWEFEKK

Soluble on expression in E. coli, soluble:
MIVLGLEGTAHTISCGIIDESRILAMESSMYRPKTGGIRPLDAAVHHSEVIDTVISRALEKAKISIHDIDLIGFSMGPGLAPSLRVTATAARTISVLTGKPIIGVNHPLGHIEIGRRVTGAIDPVMLYVSGGNTQVIAHVNGRYRVLGETLDIGIGNMIDKFAREAGIPFPGGPEIEKLAMKGTKLLDLPYSVKGMDTAFSGILTAALQYLKTGQAIEDISYSIQETAFAMLVEVLERALYVSGKDEILMAGGVALNRRLRDMVTNMAREAGIRSYLTDREYCMDNGIMIAQAALLMYKSGVRMSVEETAVNPRFRIDEVDAPWITDASRKDYGKAGAESRIEEVSFHGRPAIRKVRISKSYRNSDLDKKIRYERMRNEFTILRKLKEAGVNSPVVYDFDPFSMSITMQKIPGRMMSAELNEGRTDFLNELGIMIAKMHRAGIAHGDLTVNNIIVNDSVFIIDPSMGKVNAEIEDMAVDIYALEDSIKGLGLDSGSVIGQMLKSYRNNFNLADDVLETVSAIRRRHRYV
MIYEGKAITVTALESGIVELKFDLKGESVNKFNRLTLNELRQAVDAIKADASVKGVIVSSGKDVFIVGADITEFVENFKLPDAELIAGNLEANKIFSDFEDLNVPTVAAINGIALGGGLEMCLAADFRVMADSAKIGLPEVKLGIYPGFGGTVRLPRLIGVDNAVEWIASGKENRAEDALKVSAVDAVVTADKLGAAALDLIKRAISGELDYKAKRQPKLEKLKLNAIEQMMAFETAKGFVAGQAGPNYPAPVEAIKTIQKAANFGRDKALEVEAAGFAKLAKTSASNCLIGLFLNDQELKKKAKVYDKIAKDVKQAAVLGAGIMGGGIAYQSASKGTPILMKDINEHGIEQGLAEAAKLLVGRVDKGRMTPAKMAEVLNGIRPTLSYGDFGNVDLVVEAVVENPKVKQAVLAEVENHVREDAILASNTSTISISLLAKALKRPENFVGMHFFNPVHMMPLVEVIRGEKSSDLAVATTVAYAKKMGKNPIVVNDCPGFLVNRVLFPYFGGFAKLVSAGVDFVRIDKVMEKFGWPMGPAYLMDVVGIDTGHHGRDVMAEGFPDRMKDDRRSAIDALYEAKRLGQKNGKGFYAYEADKKGKQKKLVDSSVLEVLKPIVYEQRDVTDEDIINWMMIPLCLETVRCLEDGIVETAAEADMGLVYGIGFPLFRGGALRYIDSIGVAEFVALADQYAELGALYHPTAKLREMAKNGQSFFG
MIYVTFTPYGAFGVKDNKEVSGLEDIEYKKLFNEEEIPDIMFKLKTQPNKIADELKEEWGDEIKLETLSTEPFNIGEFLRNNLFKVGKELGYFNNYDEFRKKMHYWSTELTKKVIKSYAQQKDKIIIQVAEAISDLDKTLNLLSERLREWYSLYFPELDHLVNKHEVYANLITKLGKRKNFTKSQLKKILPSKLAGKIAEAAKNSMGGELEDYDLDVIVKFAEEINHLYEKRKELYNYLEKLMNEEAPNITKLAGVSLGARLIGLAGGLEKLAKMPASTIQVLGAEKALFAHLRMGVEPPKHGIIYNHPLIQGSPHWQRGKIARALACKLAIAARADYVGDYIADELLEKLNKRVEEIRRKYPKPPKKKKKEKPKAKKKEKKGKKEKSKKKKDKKKDKKGKKERKVIGKTKSRKLEHHHHHH
MKAIILGIQNILEVLLEDIGILKMESIFLHTNITNIPHSVLYVSLSYYIINPCTSASSNLDDSFS
MKAKTLGELRRTYPLEKLRRTVKDEARENLREKLRRGERLFPGIHGYEDTVIPALVQAILAKQNFILLGTRGQAKSRILRSLTSLLDEEVPALATELRDNPLHPISPEGKRLLEEAGDDAPIVWLSREDRYVEKLATPDTTVADLLGDMDPIKAARRGTGMADLESIHYGLLPRANRGIFAVNELADLAPKVQVALFNILEEGDVQIRGYPLRLPLDVWLVFTANPQDYTARGRIVTPLKDRIGSEIRTHYPRSLEEGARISAQEAYVPEGVLVPEWVRLSVEAVAFVAREDRRVDQTAGVSQRLAISLLEVVAASAERRALLHGGRPVARPLDLYQGLPAITGKLELEYEGELQGAERVAREIVQRAFGLVLPRYRLRTEPIVAHFEEGNLLTLPEGDVEEALKAMAGVPGLLEAARALAEGEAPEVLLSAGEFVLEGLVGRRKLSRGEATYQAAERPRSYGN
MKATLFVREFLLNPRTIGAILPSSDYLAEKMMASVCFEQAKYIIEYGPGTGVFTDKILRYRHPDTVVMIIEHNREFFCILNEKYQDEKNVIIINGSAEHIETYVKEHNIPFVDYIISGLPFASLPLHVSNAILNKARYLLGVKGKFITFQYTQTKVRLFTQFFNQMTVERVYRNLPPAFVFSCYNEKLEHHHHHH
